The values that follow come from publication PMC7558102, “Hybrid Multimodal Imaging Synthons for Chemoselective and Efficient Biomolecule Modification with Chelator and Near-Infrared Fluorescent Cyanine Dye” (Pharmaceuticals, 2020).

A short description of the series: water/1-octanol partition coefficients (logD) of 68Ga-labeled compounds, γ-counting. Type of series: physicochemical. The following applies: pH 7.4. The method, then: The mixtures were vigorously shaken for 5 min on a vibrating plate. After subsequent centrifugation at 13,000 rpm for 5 min, 125 µL was taken from each phase and measured in a γ-counter. The logD values were calculated from three or four independent experiments, each performed in triplicate. For 18, the logD was determined by semipreparative HPLC. For this purpose, a solution of 18 (10 µL, c = 5 × 10^−4 mol/L) in water was added to a mixture of 1 mL 1-octanol and 990 µL phosphate buffered solution (0.05 M, pH 7.4) and vigorously shaken for 5 min. After centrifugation, the phases were separated and both phases were analyzed by semipreparative HPLC and the peaks of the UV signals at 214 nm were integrated. The logD was determined by three separate measurements, each experiment performed in triplicate.
The logD is lipophilicity at a set pH, counting ionised and neutral species. Read a low logD as lower lipophilicity. In turn, `CC1(C)C(=CC=C2CCCC(C=CC3=[N+](CCCCS(=O)(=O)[O-])c4ccc(S(=O)(=O)O)cc4C3(C)C)=C2c2ccc(CCC(=O)NCCCC[C@H](NC(=O)CC[C@H](C(=O)O)N3CCN(CC(=O)O)CCN(CC(=O)O)CC3)C(=O)N[C@@H](CS)C(N)=O)cc2)N(CCCCS(=O)(=O)O)c2ccc(S(=O)(=O)O)cc21` [Compound 12] returned a logD of −3.47 ± 0.17.

For the compound `CSCC[C@H](NC(=O)[C@H](CC(C)C)NC(=O)[C@H](Cc1c[nH]cn1)NC(=O)CNC(=O)[C@@H](NC(=O)[C@H](C)NC(=O)[C@H](Cc1c[nH]c2ccccc12)NC(=O)[C@H](CCC(N)=O)NC(=O)CCOCCOCCOCCOCCNC(=O)CON=Cc1ccc(C(=O)NCCCN(CCCNC(=O)c2ccc(C=NOCC(=O)NCCOCCOCCOCCOCCC(=O)N[C@@H](CCC(N)=O)C(=O)N[C@@H](Cc3c[nH]c4ccccc34)C(=O)N[C@@H](C)C(=O)N[C@H](C(=O)NCC(=O)N[C@@H](Cc3c[nH]cn3)C(=O)N[C@@H](CC(C)C)C(=O)N[C@@H](CCSC)C(N)=O)C(C)C)cc2)CC(=O)N[C@H](CSC2CC(=O)N(CCN3C(=O)CC(SC[C@H](NC(=O)[C@H](CCCCNC(=O)c4ccc5c(c4)C(C)(C)C(C=CC4=C(c6ccccc6)C(=CC=C6N(CCCCS(=O)(=O)O)c7ccc(S(=O)(=O)O)cc7C6(C)C)CCC4)=[N+]5CCCCS(=O)(=O)[O-])NC(=O)CC[C@H](C(=O)O)N4CCN(CC(=O)O)CCN(CC(=O)O)CC4)C(N)=O)C3=O)C2=O)C(=O)NCCOCCOCC(N)=O)cc1)C(C)C)C(N)=O` (stereo partly drawn) [[68Ga]Ga-15, metal not drawn], the logD is -2.48 ± 0.14.

Turning to `CSCC[C@H](NC(=O)[C@H](CC(C)C)NC(=O)[C@H](Cc1c[nH]cn1)NC(=O)CNC(=O)[C@@H](NC(=O)[C@H](C)NC(=O)[C@H](Cc1c[nH]c2ccccc12)NC(=O)[C@H](CCC(N)=O)NC(=O)CCOCCOCCOCCOCCNC(=O)CON=Cc1ccc(C(=O)NCCCN(CCCNC(=O)c2ccc(C=NOCC(=O)NCCOCCOCCOCCOCCC(=O)N[C@@H](CCC(N)=O)C(=O)N[C@@H](Cc3c[nH]c4ccccc34)C(=O)N[C@@H](C)C(=O)N[C@H](C(=O)NCC(=O)N[C@@H](Cc3c[nH]cn3)C(=O)N[C@@H](CC(C)C)C(=O)N[C@@H](CCSC)C(N)=O)C(C)C)cc2)CC(=O)N[C@H](CSC2CC(=O)N(CCN3C(=O)CC(SC[C@H](NC(=O)CNC(=O)CC[C@H](C(=O)O)N4CCN(CC(=O)O)CCN(CC(=O)O)CC4)C(N)=O)C3=O)C2=O)C(=O)NCCOCCOCC(N)=O)cc1)C(C)C)C(N)=O` (stereo partly drawn) [[68Ga]Ga-17, metal not drawn], the logD is -2.38 ± 0.03.

`CC1(C)C(=CC=C2CCCC(C=CC3=[N+](CCCCS(=O)(=O)[O-])c4ccc(C(=O)NCCCC[C@H](NC(=O)CC[C@H](C(=O)O)N5CCN(CC(=O)O)CCN(CC(=O)O)CC5)C(=O)N[C@@H](CS)C(N)=O)cc4C3(C)C)=C2c2ccccc2)N(CCCCS(=O)(=O)O)c2ccc(S(=O)(=O)O)cc21` [Compound 11]: the logD is on record as −3.05 ± 0.08.

`CC1(C)C(=CC=C2CCCC(C=CC3=[N+](CCCCS(=O)(=O)[O-])c4ccc(C(=O)NCCCC[C@H](NC(=O)CC[C@H](C(=O)O)N5CCN(CC(=O)O)CCN(CC(=O)O)CC5)C(=O)N[C@@H](CS)C(N)=O)cc4C3(C)C)=C2c2ccccc2)N(CCCCS(=O)(=O)O)c2ccc(S(=O)(=O)O)cc21` (single isomer, unassigned) [[68Ga]Ga-11, metal not drawn] showed a logD of -3.05 ± 0.08.

Take `CC1(C)C(=CC=C2CCCC(C=CC3=[N+](CCCCS(=O)(=O)[O-])c4ccc(S(=O)(=O)O)cc4C3(C)C)=C2c2ccc(CCC(=O)NCCCC[C@H](NC(=O)CC[C@H](C(=O)O)N3CCN(CC(=O)O)CCN(CC(=O)O)CC3)C(=O)N[C@@H](CS)C(N)=O)cc2)N(CCCCS(=O)(=O)O)c2ccc(S(=O)(=O)O)cc21` (single isomer, unassigned) [[68Ga]Ga-12, metal not drawn]: the logD is -3.47 ± 0.17.
